Experimental data from paper PMC7081908, “Glycan Profiles of gp120 Protein Vaccines from Four Major HIV-1 Subtypes Produced from Different Host Cell Lines under Non-GMP or GMP Conditions” (Journal of Virology, 2020).
“And” between values parts separate entries of the source, which are not always exact repeats. Equal values may be shown once.

Biological target: IgG-CD4 protein (fusion protein of human CD4 domains 1 and 2 with human IgG1 Fc at the C terminus) (human)
Assay: BLI; Octet QKe; IgG-CD4 loaded onto protein G sensors at 20 ug/ml in ForteBio kinetics buffer; serial dilutions of gp120 (600 nM to 0.4 nM) in solution; Kd = koff/kon, 1:1 fitting model; two GMP lots of each gp120
Conditions: both partners purified

B1: GMP-grade gp120 protein, HIV-1 clade A isolate 92UG037.8 (natural protein)
chain: not shown
With B1 the Kd was 5.48 nM and 3.62 nM.
